In PMC4441422:

Experiments:
[1] = biological target: T1, full-length catalytic domain of human N-myristoyltransferase 1 (hNMT1s) (human) (UniProt P30419)
T1 sequence: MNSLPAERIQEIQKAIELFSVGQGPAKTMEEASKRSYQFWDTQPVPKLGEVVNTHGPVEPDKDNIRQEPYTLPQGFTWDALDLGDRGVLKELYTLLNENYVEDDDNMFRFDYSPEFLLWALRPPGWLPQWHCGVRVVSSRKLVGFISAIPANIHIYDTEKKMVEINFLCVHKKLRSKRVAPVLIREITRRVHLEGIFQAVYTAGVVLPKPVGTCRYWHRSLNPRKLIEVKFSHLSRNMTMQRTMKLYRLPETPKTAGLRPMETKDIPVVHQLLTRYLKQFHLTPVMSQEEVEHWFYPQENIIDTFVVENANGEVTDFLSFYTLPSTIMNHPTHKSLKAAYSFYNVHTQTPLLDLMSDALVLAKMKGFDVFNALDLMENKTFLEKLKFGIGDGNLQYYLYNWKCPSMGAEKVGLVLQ

[2] = biological target: T2, truncation mutant of hNMT1s devoid of 28 N-terminal amino acids (Δ28-hNMT1s) (human) (UniProt P30419)
T2 sequence: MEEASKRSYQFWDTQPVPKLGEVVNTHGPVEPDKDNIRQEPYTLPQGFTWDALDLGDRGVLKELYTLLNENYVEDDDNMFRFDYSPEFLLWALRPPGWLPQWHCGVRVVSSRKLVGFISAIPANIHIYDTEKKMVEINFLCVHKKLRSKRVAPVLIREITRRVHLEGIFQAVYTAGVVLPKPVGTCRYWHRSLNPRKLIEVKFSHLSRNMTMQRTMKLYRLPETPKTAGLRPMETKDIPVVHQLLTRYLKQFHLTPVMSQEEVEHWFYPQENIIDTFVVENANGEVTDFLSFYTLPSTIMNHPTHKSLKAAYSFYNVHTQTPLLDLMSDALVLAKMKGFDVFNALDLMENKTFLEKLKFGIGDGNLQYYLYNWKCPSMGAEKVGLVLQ

B1: peptide substrate corresponding to the N-terminal sequence of pp60src (amino acids 2-9) (peptide)
peptide: GSNKSKPK
Q: What does the source list for B1?
A: K m (μM) for the peptide in the myristoylation reaction (fluorescence assay of CoA release with CPM; peptide 1-50 μM, MYA 30 μM, 5 nM enzyme, 25°C) [1]: 25.7 µM; K m (μM) for the peptide in the myristoylation reaction (fluorescence assay of CoA release with CPM; peptide 1-50 μM, MYA 30 μM, 5 nM enzyme, 25°C) [2]: 14.4 µM
